Patent US20210261648A1 (published 2021)
Changes are numbered by the printed parent chain.

T1: FcγRIIb (human, UniProt P31994 43-217)
T1 construct: extracellular domain; also called FcgRIIb; CD32B
T1 sequence (looked up): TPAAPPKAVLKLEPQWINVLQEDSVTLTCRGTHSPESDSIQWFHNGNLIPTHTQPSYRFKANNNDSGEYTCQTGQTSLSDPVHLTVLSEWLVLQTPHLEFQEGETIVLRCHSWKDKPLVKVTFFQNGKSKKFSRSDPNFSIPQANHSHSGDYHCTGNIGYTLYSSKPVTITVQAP

T2: FcγRIIa type R (human, UniProt P12318 34-217)
T2 chain: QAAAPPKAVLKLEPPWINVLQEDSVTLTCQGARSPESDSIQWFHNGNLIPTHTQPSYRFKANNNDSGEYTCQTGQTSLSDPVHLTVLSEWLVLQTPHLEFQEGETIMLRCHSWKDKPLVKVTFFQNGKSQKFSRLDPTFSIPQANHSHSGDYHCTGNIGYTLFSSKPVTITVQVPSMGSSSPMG

T3: FcγRIIb extracellular domain with C-terminal His tag (human, UniProt P31994 43-217)
T3 construct: extracellular domain; For crystallography it was expressed with kifunensine and trimmed with Endo F1; also called FcgRIIb; FcγRIIb extracellular region; not shown: His tag attached to the C terminus
T3 sequence (looked up): T1 sequence (looked up)

T4: FcγRIIa type H extracellular domain with C-terminal His tag (human, UniProt P12318 34-217)
T4 construct: extracellular domain; also called FcγRIIaH; FcgRIIaH; not shown: His tag attached to the C terminus
T4 sequence (looked up): T2 chain with R134H

T5: FcγRIIa type H (human, UniProt P12318 34-217)
T5 construct: extracellular domain; also called FcγRIIaH; FcgRIIaH
T5 sequence (looked up): T2 chain with R134H

B1: IL6R-BP503/IL6R-L (antibody, human IgG1, kappa)
heavy: QVQLQESGPGLVKPSETLSLTCAVSGHSISHDHAWSWVRQPPGEGLEWIGFISYSGITNYNPSLQGRVTISRDNSKNTLYLQMNSLRAEDTAVYYCARSLARTTAMDYWGEGTLVTVSSASTKGPSVFPLAPSSKSTSGGTAALGCLVKDYFPEPVTVSWNSGALTSGVHTFPAVLQSSGLYSLSSVVTVPSSSLGTQTYICNVNHKPSNTKVDKKVEPKSCDKTHTCPPCPAPDLLGDDSVFLFPPKPKDTLMISRTPEVTCVVIDVAEEDGEVKFNWYVDGVEVHNAKTKPREEQDNSTYRVVSVLTVLHQDWLNGKEYKCKVSNKGLPRPIEKTISKAKGQPREPQVYTLPPSRDELTKNQVSLTCLVKGFYPSDIAVEWESNGQPENNYKTTPMVLDSDGSFFLYSKLTVDKSRWQQGNVFSCSVMHEALHNHYTQESLSLSP
light: not shown
notes: Alterations in EU numbering, introduced into IL6R-B3
B2: IL6R-BP510/IL6R-L (antibody, human IgG1, kappa)
heavy: B1 heavy with D235E, E274P, D298Y, G329A, M398P
light: not shown
notes: as for B1
B3: IL6R-BP538/IL6R-L (antibody, human IgG1, kappa)
heavy: B1 heavy with D235E, A269S, D298Y, G329A, M398P
light: not shown
notes: as for B1
B4: IL6R-BP539/IL6R-L (antibody, human IgG1, kappa)
heavy: B1 heavy with D235E, A269G, E274P, G329A, M398P
light: not shown
notes: as for B1
B5: IL6R-BP550/IL6R-L (antibody, human IgG1, kappa)
heavy: B1 heavy with D235E, A269G, E274D, G329A, M398P
light: not shown
notes: as for B1
B6: IL6R-BP556/IL6R-L (antibody, human IgG1, kappa)
heavy: B1 heavy with D235E, A269G, G329A, M398P
light: not shown
notes: as for B1
B7: IL6R-BP533/IL6R-L (antibody, human IgG1, kappa)
heavy: B1 heavy with A269G, G329A, M398L
light: not shown
notes: as for B1
B8: IL6R-BP551/IL6R-L (antibody, human IgG1, kappa)
heavy: B1 heavy with D235E, A269S, E274D, G329A, M398P
light: not shown
notes: as for B1
B9: IL6R-BP511/IL6R-L (antibody, human IgG1, kappa)
heavy: B1 heavy with D235E, E274P, G329A, M398P
light: not shown
notes: as for B1
B10: IL6R-BP540/IL6R-L (antibody, human IgG1, kappa)
heavy: B1 heavy with D235E, A269S, E274P, G329A, M398P
light: not shown
notes: as for B1
B11: IL6R-BP536/IL6R-L (antibody, human IgG1, kappa)
heavy: B1 heavy with A269S
light: not shown
notes: as for B1
B12: IL6R-2B002/IL6R-L (antibody, human IgG1, kappa)
heavy: B1 heavy with D239G, I266V, A269S, E270H, G273P, D298Y, G329A, R332A, M398P
light: not shown
notes: Alterations introduced into IL6R-B3
B13: IL6R-BP107/IL6R-L (antibody, human IgG1, kappa)
heavy: B1 heavy with D235E, D239G, I266V, A269S, G273P, D298Y, G329A, R332A, M398P
light: not shown
notes: as for B12
B14: IL6R-BP112/IL6R-L (antibody, human IgG1, kappa)
heavy: B1 heavy with D235E, D239G, I266V, A269S, E270H, D298Y, G329A, R332A, M398P
light: not shown
notes: as for B12
B15: IL6R-BP103/IL6R-L (antibody, human IgG1, kappa)
heavy: B1 heavy with D235E, D239G, I266V, A269V, E270H, G273P, D298Y, G329A, R332A, M398P
light: not shown
notes: as for B12
B16: IL6R-2B128/IL6R-L (antibody, human IgG1, kappa)
heavy: B1 heavy with D235E, D239G, I266V, A269S, E270H, G273P, G329A, R332A, M398P
light: not shown
notes: as for B12
B17: IL6R-BP116/IL6R-L (antibody, human IgG1, kappa)
heavy: QVQLQESGPGLVKPSETLSLTCAVSGHSISHDHAWSWVRQPPGEGLEWIGFISYSGITNYNPSLQGRVTISRDNSKNTLYLQMNSLRAEDTAVYYCARSLARTTAMDYWGEGTLVTVSSASTKGPSVFPLAPSSKSTSGGTAALGCLVKDYFPEPVTVSWNSGALTSGVHTFPAVLQSSGLYSLSSVVTVPSSSLGTQTYICNVNHKPSNTKVDKKVEPKSCDKTHTCPPCPAPELLGGDSVFLFPPKPKDTLMISRTPEVTCVVVDVSHEDPEVKFNWYVDGVEVHNAKTKPREEQYNSTYRVVSVLTVLHQDWLNGKEYKCKVSNTALPAPIEKTISKAKGQPREPQVYTLPPSRDELTKNQVSLTCLVKGFYPSDIAVEWESNGQPENNYKTTPPVLDSDGSFFLYSKLTVDKSRWQQGNVFSCSVMHEALHNHYTQESLSLSP
light: not shown
notes: as for B12
B18: IL6R-2B172/IL6R-L (antibody, human IgG1, kappa)
heavy: B17 heavy with V325M, T328K
light: not shown
notes: as for B12
B19: IL6R-BP100/IL6R-L (antibody, human IgG1, kappa)
heavy: B17 heavy with S269A, T328K
light: not shown
notes: as for B12
B20: IL6R-BP078/IL6R-L (antibody, human IgG1, kappa)
heavy: B17 heavy with T328K, A332M
light: not shown
notes: as for B12
B21: IL6R-BP102/IL6R-L (antibody, human IgG1, kappa)
heavy: B17 heavy with S269Q, T328K
light: not shown
notes: as for B12
B22: IL6R-BP110/IL6R-L (antibody, human IgG1, kappa)
heavy: B17 heavy with H270N, T328K
light: not shown
notes: as for B12
B23: IL6R-2B171/IL6R-L (antibody, human IgG1, kappa)
heavy: B17 heavy with V325L, T328K
light: not shown
notes: as for B12
B24: IL6R-BP106/IL6R-L (antibody, human IgG1, kappa)
heavy: B17 heavy with H270D, T328K
light: not shown
notes: as for B12
B25: IL6R-2B169/IL6R-L (antibody, human IgG1, kappa)
heavy: B17 heavy with V325I, T328K
light: not shown
notes: as for B12

biological target: T1, FcγRIIb; assay: SPR (Biacore); parent = IL6R-B3/IL6R-L

| KD(IIb) of the parent polypeptide/KD(IIb) of the altered polypeptide [fold] | Binder |
| --- | --- |
| 1810 | B1 |
| 807 | B2 |
| 587 | B3 |
| 369 | B4 |
| 406 | B5 |
| 370 | B6 |
| 756 | B7 |
| 482 | B8 |
| 891 | B9 |
| 541 | B10 |
| 1040 | B11 |

Biological target: T2, FcγRIIa type R
Assay: SPR (Biacore); parent = IL6R-B3/IL6R-L

| KD(IIaR) of the parent polypeptide/KD(IIaR) of the altered polypeptide [fold] | Binder |
| --- | --- |
| 19.4 | B1 |
| 6.6 | B2 |
| 5.4 | B3 |
| 3.4 | B4 |
| 3.3 | B5 |
| 3.7 | B6 |
| 9.2 | B7 |
| 4.5 | B8 |
| 6.3 | B9 |
| 5.2 | B10 |
| 13.9 | B11 |

biological target: T6, FcγRIa extracellular domain with C-terminal His tag (human, UniProt P12314 16-292); assay: SPR binding amount, relative to IL6R-BF648/IL6R-L
T6 construct: also called FcgRIa; not shown: His tag attached to the C terminus
T6 sequence (P12314 16-292): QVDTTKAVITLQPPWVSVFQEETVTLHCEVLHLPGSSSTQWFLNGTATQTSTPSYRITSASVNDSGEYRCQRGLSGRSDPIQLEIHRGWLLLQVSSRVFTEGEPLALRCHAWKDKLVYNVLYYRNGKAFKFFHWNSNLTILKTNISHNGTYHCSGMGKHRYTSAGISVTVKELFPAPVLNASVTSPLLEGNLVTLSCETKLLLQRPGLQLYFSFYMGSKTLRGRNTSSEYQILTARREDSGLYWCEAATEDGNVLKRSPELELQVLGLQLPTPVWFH

| relative binding activity (IL6R-BF648/IL6R-L = 100) | Binder |
| --- | --- |
| 118 | B12 |
| 123 | B13 |
| 119 | B14 |
| 56 | B15 |
| 95 | B16 |
| 110 | B17 |
| 140 | B18 |
| 121 | B19 |
| 106 | B20 |
| 104 | B21 |
| 105 | B22 |
| 116 | B23 |
| 127 | B24 |
| 73 | B25 |

biological target: T3, FcγRIIb extracellular domain with …; assay: SPR binding amount, relative to IL6R-BF648/IL6R-L

| relative binding activity (IL6R-BF648/IL6R-L = 100) | Binder |
| --- | --- |
| 116 | B12 |
| 118 | B13 |
| 157 | B14 |
| 107 | B15 |
| 103 | B16 |
| 108 | B17 |
| 132 | B18 |
| 110 | B19 |
| 105 | B20 |
| 106 | B21 |
| 101 | B22 |
| 113 | B23 |
| 116 | B24 |
| 104 | B25 |

biological target: T4, FcγRIIa type H extracellular domain …; assay: SPR binding amount, relative to IL6R-BF648/IL6R-L

| relative binding activity (IL6R-BF648/IL6R-L = 100) | Binder |
| --- | --- |
| 147 | B12 |
| 114 | B13 |
| 113 | B14 |
| 69 | B15 |
| 37 | B16 |
| 110 | B17 |
| 179 | B18 |
| 128 | B19 |
| 89 | B20 |
| 66 | B21 |
| 127 | B22 |
| 115 | B23 |
| 110 | B24 |
| 83 | B25 |

biological target: T1, FcγRIIb; assay: SPR (Biacore), captured antibody, soluble FcγR

| Kd [nM] | Binder |
| --- | --- |
| 1.7 | B1 |
| 3.8 | B2 |
| 5.3 | B3 |
| 8.4 | B4 |
| 7.6 | B5 |
| 8.4 | B6 |
| 4.1 | B7 |
| 6.4 | B8 |
| 3.5 | B9 |
| 5.7 | B10 |
| 3 | B11 |

biological target: T5, FcγRIIa type H; assay: SPR (Biacore), captured antibody, soluble FcγR

| Kd [nM] | Binder |
| --- | --- |
| 860 | B1 |
| 4000 | B2 |
| 3000 | B3 |
| 5600 | B4 |
| 5000 | B5 |
| 5800 | B6 |
| 2600 | B7 |
| 2800 | B8 |
| 4300 | B9 |
| 4600 | B10 |
| 1300 | B11 |

Biological target: T2, FcγRIIa type R
Assay: SPR (Biacore), captured antibody, soluble FcγR

| Kd [nM] | Binder |
| --- | --- |
| 57 | B1 |
| 170 | B2 |
| 200 | B3 |
| 330 | B4 |
| 340 | B5 |
| 300 | B6 |
| 120 | B7 |
| 250 | B8 |
| 180 | B9 |
| 210 | B10 |
| 79 | B11 |

biological target: T7, FcγRIa (human, UniProt P12314 16-292); assay: SPR (Biacore), captured antibody, soluble FcγR
T7 construct: Whole entry named; also called FcgRIa; CD64A
T7 sequence (P12314 16-292): as above

| Kd [nM] | Binder |
| --- | --- |
| 1.2 | B1 |
| 6 | B2 |
| 55 | B3 |
| 64 | B4 |
| 25 | B5 |
| 43 | B6 |
| 7.7 | B7 |
| 32 | B8 |
| 6 | B9 |
| 96 | B10 |
| 8.9 | B11 |
